Source: IntAct's records for PubMed 22892567

Biological target: cbx3_mouse Cbx3 (UniProt P23198)
Sequence (P23198 whole entry): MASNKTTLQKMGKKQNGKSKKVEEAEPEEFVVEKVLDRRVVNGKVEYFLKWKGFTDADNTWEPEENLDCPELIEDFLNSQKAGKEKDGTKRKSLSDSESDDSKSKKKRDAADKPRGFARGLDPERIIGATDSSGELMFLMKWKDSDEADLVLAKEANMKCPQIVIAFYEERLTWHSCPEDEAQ

Substance	effect of a mutation on the interaction
Voltage-dependent L-type calcium channel subunit beta-4 (Rattus norvegicus (Rat)) (from UniProt D4A055) P220A	disrupting interaction strength
Voltage-dependent L-type calcium channel subunit beta-4 (Rattus norvegicus (Rat)) (from UniProt D4A055) V222A	disrupting interaction
